Molecular target: the molecule itself
Assay: fluorescence correlation spectroscopy

B1: Δ1-688 hTRPA1 (hTRPA1 without its N-terminal ankyrin repeat domain) (domain or fragment, human, UniProt O75762 689-1119, looked up)
chain: MVQNNRIELLNHPVCKEYLLMKWLAYGFRAHMMNLGSYCLGLIPMTILVVNIKPGMAFNSTGIINETSDHSEILDTTNSYLIKTCMILVFLSSIFGYCKEAGQIFQQKRNYFMDISNVLEWIIYTTGIIFVLPLFVEIPAHLQWQCGAIAVYFYWMNFLLYLQRFENCGIFIVMLEVILKTLLRSTVVFIFLLLAFGLSFYILLNLQDPFSSPLLSIIQTFSMMLGDINYRESFLEPYLRNELAHPVLSFAQLVSFTIFVPIVLMNLLIGLAVGDIAEVQKHASLKRIAMQVELHTSLEKKLPLWFLRKVDQKSTIVYPNKPRSGGMLFHIFCFLFCTGEIRQEIPNADKSLEMEILKQKYRLKDLTFLLEKQHELIKLIIQKMEIISETEDDDSHCSFQDRFKKEQMEQRNSRWNTVLRAVKAKTHHLEP
modifications: Ni-NTA Atto647N on the N-terminal His-tag (labeled copies in FCS)
Question: For B1, which “stoichiometry N” value is on record?
Answer: The value was 4.

B2: purified human TRPA1 (hTRPA1) (natural protein, UniProt O75762 1-1119, looked up)
chain: MKRSLRKMWRPGEKKEPQGVVYEDVPDDTEDFKESLKVVFEGSAYGLQNFNKQKKLKRCDDMDTFFLHYAAAEGQIELMEKITRDSSLEVLHEMDDYGNTPLHCAVEKNQIESVKFLLSRGANPNLRNFNMMAPLHIAVQGMNNEVMKVLLEHRTIDVNLEGENGNTAVIIACTTNNSEALQILLKKGAKPCKSNKWGCFPIHQAAFSGSKECMEIILRFGEEHGYSRQLHINFMNNGKATPLHLAVQNGDLEMIKMCLDNGAQIDPVEKGRCTAIHFAATQGATEIVKLMISSYSGSVDIVNTTDGCHETMLHRASLFDHHELADYLISVGADINKIDSEGRSPLILATASASWNIVNLLLSKGAQVDIKDNFGRNFLHLTVQQPYGLKNLRPEFMQMQQIKELVMDEDNDGCTPLHYACRQGGPGSVNNLLGFNVSIHSKSKDKKSPLHFAASYGRINTCQRLLQDISDTRLLNEGDLHGMTPLHLAAKNGHDKVVQLLLKKGALFLSDHNGWTALHHASMGGYTQTMKVILDTNLKCTDRLDEDGNTALHFAAREGHAKAVALLLSHNADIVLNKQQASFLHLALHNKRKEVVLTIIRSKRWDECLKIFSHNSPGNKCPITEMIEYLPECMKVLLDFCMLHSTEDKSCRDYYIEYNFKYLQCPLEFTKKTPTQDVIYEPLTALNAMVQNNRIELLNHPVCKEYLLMKWLAYGFRAHMMNLGSYCLGLIPMTILVVNIKPGMAFNSTGIINETSDHSEILDTTNSYLIKTCMILVFLSSIFGYCKEAGQIFQQKRNYFMDISNVLEWIIYTTGIIFVLPLFVEIPAHLQWQCGAIAVYFYWMNFLLYLQRFENCGIFIVMLEVILKTLLRSTVVFIFLLLAFGLSFYILLNLQDPFSSPLLSIIQTFSMMLGDINYRESFLEPYLRNELAHPVLSFAQLVSFTIFVPIVLMNLLIGLAVGDIAEVQKHASLKRIAMQVELHTSLEKKLPLWFLRKVDQKSTIVYPNKPRSGGMLFHIFCFLFCTGEIRQEIPNADKSLEMEILKQKYRLKDLTFLLEKQHELIKLIIQKMEIISETEDDDSHCSFQDRFKKEQMEQRNSRWNTVLRAVKAKTHHLEP
modifications: Ni-NTA Atto647N on the N-terminal His-tag (labeled copies in FCS)
Question: How did the “stoichiometry N” value turn out when B2 was run?
Answer: The value was 4.

— paper doi:10.1101/2020.03.19.999276 (bioRxiv, 2020)
